Assay: label from the status in PepcDB records
For “MVAVTYSPGPHLERFLASLSLATERPVSVLLADNGSTDGTPQAAVQRYPNVRLLPTGANLGYGTAVNRTIAQLGEMAGDAGEPWVDDWVIVANPDVQWGPGSIDALLDAASRWPRAGALGPLIRDPDGSVYPSARQMPSLIRGGMHAVLGPFWPRNPWTTAYRQERLEPSERPVGWLSGSCLLVRRSAFGQVGGFDERYFMYMEDVDLGDRLGKAGWLSVYVPSAEVLHHKAHSTGRDPASHLAAHHKSTYIFLADRHSGWWRAPLRWTLRGSLALRSHLMVRRSRRRKLKLVEGRH”, the protein production was “failed”. With “MVCYNNPMELLMKIIAFSCHLFFIGLSYQLLISVIDWTKFSHYHPENLGRLRLFVFLLATALGYLVSHCMLELLQISQTLFFEFR” the protein production was “failed”. With “MVDFIRRIQISCVVSLTDSRHQRRTKSHHHPLNPPNPVAESRKRSKGKQKEKVNNMVLFDQATYDKLMSEAPKFKLITPSILSDRLRINGSLARKAIRDLMVKGTIRMVSTHSSQQINTRATCLT” the protein production was “failed”. For “MVDMDWKRKMVSSDLPNSPKLSSKLHVTIPSPFKIVPVSSPISCSAPALCSAYELYLRLPELRKLWSSRDFPQWTSEPILKPALQALEISFRLVFAVCSDTRPYINHREWNRRLDSLITKQIQLVAAICEDEEEEGISAEAPVGGGRSSLSLLPQLATWRRSEALGKKILYTIDNEMSRCKYTLGLGEQNIAGKPNLRYDAICRPNEIYSLKDNPYADHIDNHENQTLYIIHQILESWIYASGNLLNRIVSSIEEEKFGKASNDVYLLEKIWKILAEIEDLHMLMDPEDFLKLKKQLQIKSTGKNDAFCFRSKGLVEMMKMSKDLRQKVPAVLAVEVDPTGGPRLQEAAMKLYARKTECDKIHLLQGMQAVEAAAKSFFFGYRQLVAAMMGSAEMNATASQESCDSLSQIFMEPTYFPSLDAAKTFLGEFWSHLG”, the protein production was “failed”. With “MVDSYDDSLDGEKSKTQVKRELHALVDLGERLTTLKADVLAKLPLTDALRKALAEAPKHTANIARKRHILFIGKLMRDQDQEAILVLLDQLDASTRQYNERFHNLERWRDRLIAGDDADLEKFVIEYPDADRQQLRSLIRQAQHEVARNKPPATSRKIFKYIRELDELQ” the protein production was “not failed”. For “MVDSYDDSLDGEKSKTQVKRELHALVDLGERLTTLKADVLAKLPLTDALRKALAEAPKHTANIARKRHILFIGKLMRDQDQEAILVLLDQLDASTRQYNERFHNLERWRDRLIAGDDADLEKFVIEYPDADRQQLRSLIRQAQHEVARNKPPATSRKIFKYIRELDELQRGLR”, the protein production was “not failed”. In the case of “MVDWSTLPKDLLDLISKSLESSFDLIQFRSVCSSWRSAAEPKSPLPTHHLPILPDNGGSLFPDSAVGFRLSQRSILLIKPHEPCIESDSFGWLIKVEEDLNVPRKVTLLDPLCDTRNSIPENFPRVLDMSKFKVRELGREFKLHYFNTVGDIVESLYLEKAVVKYLDCDGDYKFVLLTIHVSGKLAVFRSWDRAWTVINDMPSPYDDVMLFDGRFFAVDNNGRTVVVDYSSLKLTLVASPVFGGDKKFLIESCGEMLLVDMYLSLEAVEGDPGFVEEIFEHPAFYMNERTVKFKVYRFVEREESWVDVYDLEDKMLFLGDDSTFSASASDILPLCDGSSVFFNGNVFNGEDLGAMQDRDLGVFDFRSGKIELVQKLPEYAKLFWPPPPWITSHARAEDHIGETSSQS”, the protein production is reported as “failed”. For “MVEAIIFDMDGVLFDTEKYYYDRRASFLGQKGISIDHLPPSFFIGGNTKQVWENILRDEYDKWDVSTLQEEYNTYKQNNPLPYKELIFPDVLKVLNEVKSQGLNIGLASSSVKADIFRALEENRLQAFFDIVLSGEEFKESKPNPEIYLTALKQLNVQASRALIIEDSEKGIAAGVAADVEVWAIRDNLFGMDQSAAKGLLDSLTDVLDLI”, the protein production was “not failed”. In the case of “MVEAPPPELRILSAGDSSYSGSGWSRVPHVWLRDEIRLSGEPRVRQGKREGDRRFRGRGRDRGRWHLGCPRKALFSNLLGTVYRCGNLNFSRDGNSVISPVGNRVTVFDLKNNRSDTLPLATKYNIKCVGLSPDGRLAIIVDEGGAALLVSLVCRSVLHHFHFKGSVHSVSFSPDGRKFVITKGNIAQMYHAPGKKREFNAFVLDKTYFGPYDETTCIDWTDDSKCFVVGSKDMSTWVFGAERWDNLIYYALSGHKDAIVACFFESNSLDLYSLSQDGALCVWQCDTPPEGLRLKAPRGWKADILQREKEEEEEEDEEGEGNRETTIRGKAVPAEQERVGKVKYSRLAKYFLNKEGDFNNLTAAAYHKKTHLLVTGFASGIFHLHELPEFNLIHSLSISDQRVASVAINSSGDWIAFGCSGLGQLLVWEWQSESYVLKQQGHFNSMVALAYSPDGQYIVTGGDDGKVKVWNTLSGFCFVTLTEHSSGVTGVTFTATGHVIVTSSLDGTVRAYDLHRYRNFRTFTSPRPTQFSCVAVDSSGEIVSAGAQDSFEIFVWSMQTGRLLDVLSGHEGPISGLCFNPMKSILASASWDKTVRLWDMFDSWRTKETLSLTSDVLAVTYRPDGAELAVATLNSQITFWDPENAVQVGSIEGRHDLKTGRKELDKITAKHSAKGKAFTTVCYSADGQNILAGGMSKFVCLYHVREQILVKRFELSCNFSLDAMEEFLNRRKMTEFGNLALIDQDAGEENGVAIPLPGVRKGDMSSRHFKPEIRVTSLRFSPTGRCWAATSTEGLLIFSLDAQMLFDPFELDTSVTPGRIREALRQREFTRAILMAFRLNEKKLAQEALEAVPQNEIEVVSASLPELYVVKVLEFLAASFEESRHLEFYLIWTQKLLMSHGQRLKSRAGQLLPVVQFLQKGLQRHLDDISKLCDWNRYNIQYALAVSKQRGMKRTLEPVDTEEDTDASDEDSLHLLRAAEEEEEGMLV”, the protein production is reported as “failed”. For “MVEGVHCVPDSVELMPKQHDIPRARLRIVVHEGRNHEVRELVKNAGLEVHSLKRVRIGGFRLPSDLGLGKHVELKQSELKALGWKN”, the protein production was “not failed”. In the case of “MVESKNTELSQGTWLNKPKSVFQEAGKVTLETDEKTDFWRETFYGFTRDSGHFLGVETGSAFTAQVRVQGSYESLYDQAGIMVRIDDGHWLKAGIEISDGHAMLSSVLTNGKSDWSTAVYGGNARDFWLRVTVEKGVLRIQVSSDKKTWPLVRLAPFPTSDHYLVGPMACTPERGGLKVTFSEWSLTAPLGKALHDLS”, the protein production is reported as “failed”. For “MVETLPALEIGEDERLDLENLATGAFFPVKGFMTREEALSVAHEMRLPTGEVWTIPILLQFREKPRVGPGNTVALLHGGERVALLHVAEAYELDLEALARAVFGTDSETHPGVARLYGKGPYALAGRVEVLKPRPRTPLEKTPEEVRAFFRQRGWRKVVAFQTRNAPHRAHEYLIRLGLELADGVLVHPILGAKKPDDFPTEVIVEAYQALIRDFLPQERVAFFGLATPMRYAGPKEAVFHALVRKNFGATHFLVGRDHAGVGDFYDPYAAHRIFDRLPPLGIEIVKVGAVFHCPLCGGIASERTCPEGHREKRTAISMTKVRALLREGKAPPSELVRPELLPILRRGV”, the protein production was “not failed”. With “MVFCGDDVATGVRDAITYCYRCKGRKVTLSDHEADDDNKPIGDFDYDHEVVVFEIRSRAMEKLRKKRRTGMEGLTYKFVKEYDIENEFCSVRSSFSECCMSDISIEGYMTAKTEFSRSSSLKGLELENQWKMHYVNEIKKGSVIQEFCHCQGWPFGLGRKAALLPPLPKSPAESWSWRKPTRVTPVPFV” the protein production was “failed”. For “MVFIMENTNKIASLELGRLLAMFAIIALHSQVFMTYLLMDDFPVFGNIFNQLTRFAVPFFFILSGYFIQPKLTHTPLKTIQSYCAPLFKIWIVWSVLSLALPFHWRKVAENGYLAERTGYWNWLTQNPLNALFEGGMVHLWFIPALIIAVSIIGLLIHFKKTTWLIPIAVILYVYGLAGGSYQTLTEVWTPFFTRNGPFFSTLMVVIGFELRRREITLSSTNALILLLVGFAIHFSEAYWLTQFDVPFNLHDFLIGTPLMGIGVFFLLLSKPQLGHHPITFTLSKHVLGIYVCHLLFVVVFLNITGMMGITLAMRDFVIVFGTATASTLFVLIMDKTPFRQMLFR”, the protein production was “failed”. For “MVFSGPASPGLTLAPLRRGGIDPCYRVDAAGAIWRTSLMPSGPVTARITRAATDAADCQAWGEGADEFIDRLPALLGVDDDASDFAPAEPTIAKARRQVPHLRLGRTGRMLEALIPAIIEQRVYGLDAWRAWRALVTKFGTPAPGPAPDGMRVVPSAEVWRRIPSWEFHRANVDPGRARTIVMCAQRADSLERLTHERAAVTLRSLPGVGEWTAAETMQRVFGDADALSAGDYHLATLVGQALTGEPVDDAGMVELLEPMRPHRHRAVRLLEASGMFVYRRRGARQAIPKLRTLLEHHHHHH”, the protein production was “failed”.

— a protein production outcome set (Wang et al. 2014)
